In patent US20240150490A1 (MABPRO A S, published 2024) one finds Kd data, which are given here for 19 molecules.

Usually Kd stands for the free concentration of one partner at which half of the binding sites on the other are occupied at equilibrium, for simple one-to-one binding.

B1: CA9hu-1 chimeric HC0LC0 (antibody, V domains shown)
VH: EVKLVESGGGLVQPGGSLRLSCATSGFTFTDYYMHWVRQPPGMALEWLAFIRNKASGYTPQYSASVKGRFTISRDVSQTILYLQMNTLRPEDSATYYCVRGGHAGSNYWYFDVWGAGTTVTVSS
VL: DIQMNQSPSSLSASLGDTITIACHVSQNINVWLSWYQQKPGNIPKLLIYQASNLHTGVPSRFTGSGSGTGFTLTISSLQPEDIATYYCQQGQSYPFTFGSGTKLEIK
notes: also called HC0LC0 (CA9hu-1); chimeric variant
B2: CA9hu-1_HC1LC5 (antibody, V domains shown)
VH: EVQLVESGGGLVQPGGSLRLSCAASGFTFTDYYMHWVRQAPGKGLEWVAFIRNKASGYTPQYSASVKGRFTISRDDSKNSLYLQMNSLKIEDTAVYYCVRGGHAGSNYWYFDVWGQGTTVTVSS
VL: DIQMTQSPSSLSASVGDRVTITCHVSQNINVWLSWYQQKPGKAPKLLIYQASNLHTGVPSRFSGSGSGTDFTFTISSLQPEDIATYYCQQGQSYPFTFGQGTKLEIK
notes: Humanized from murine VII/20; also called HC1LC5 (CA9hu-1)
B3: CA9hu-1_HC4LC2 (antibody, V domains shown)
VH: EVQLVESGGGLVQPGGSLRLSCAASGFTFTDYYMHWVRQAPGRGLEWVAFIRNKASGYTPQYSASVKGRFTISRDNAENSLYLQMNSLRAEDTAVYYCVRGGHAGSNYWYFDVWGKGTTVTVSS
VL: DIQMTQSPSTLSASVGDRVTITCHVSQNINVWLSWYQQKPGNAPKLLIYQASNLHTGVPSRFSGSGSGTEFTLTIGSLQPDDFVTYYCQQGQSYPFTFGQGTKVEIK
notes: Humanized from murine VII/20; also called HC4LC2 (CA9hu-1)
B4: CA9hu-1_HC3LC2 (antibody, V domains shown)
VH: QVQLVQSGGGLVQPGRSLRLSCTASGFTFTDYYMHWVRQAPGKGLEWVGFIRNKASGYTPQYSASVKGRFTISRDDSKTIAYLQMNSLKTEDTAVYYCVRGGHAGSNYWYFDVWGQGTLVTVSS
VL: DIQMTQSPSTLSASVGDRVTITCHVSQNINVWLSWYQQKPGNAPKLLIYQASNLHTGVPSRFSGSGSGTEFTLTIGSLQPDDFVTYYCQQGQSYPFTFGQGTKVEIK
notes: Humanized from murine VII/20; also called HC3LC2 (CA9hu-1)
B5: CA9hu-1_HC4LC1 (antibody, V domains shown)
VH: EVQLVESGGGLVQPGGSLRLSCAASGFTFTDYYMHWVRQAPGRGLEWVAFIRNKASGYTPQYSASVKGRFTISRDNAENSLYLQMNSLRAEDTAVYYCVRGGHAGSNYWYFDVWGKGTTVTVSS
VL: DIQMTQSPSSLSASVGDRVTITCHVSQNINVWLSWYQQKPGKAPNLLIYQASNLHTGVPSRFSGSGSGTHFTLTISSLQPEDIATYYCQQGQSYPFTFGGGTKVEIK
notes: Humanized from murine VII/20; also called HC4LC1 (CA9hu-1)
B6: CA9hu-1_HC3LC1 (antibody, V domains shown)
VH: QVQLVQSGGGLVQPGRSLRLSCTASGFTFTDYYMHWVRQAPGKGLEWVGFIRNKASGYTPQYSASVKGRFTISRDDSKTIAYLQMNSLKTEDTAVYYCVRGGHAGSNYWYFDVWGQGTLVTVSS
VL: DIQMTQSPSSLSASVGDRVTITCHVSQNINVWLSWYQQKPGKAPNLLIYQASNLHTGVPSRFSGSGSGTHFTLTISSLQPEDIATYYCQQGQSYPFTFGGGTKVEIK
notes: Humanized from murine VII/20; also called HC3LC1 (CA9hu-1)
B7: CA9hu-1_HC2LC4 (antibody, V domains shown)
VH: EVRLVESGGGLVQPGGSLRLSCAASGFTFTDYYMHWVRQAPGKGLEWLGFIRNKASGYTPQYSASVKGRFTISRDDSTNSLYLQMNSLKTEDTAIYYCVRGGHAGSNYWYFDVWGQGTLVTVSS
VL: DIQMTQSPSSLSASVGDRVTINCHVSQNINVWLSWYQQKPGEAPKLLIYQASNLHTGVPSRFSGSGSGTGFTLTIRSLQPEDYATYYCQQGQSYPFTFGQGTKLEIK
notes: Humanized from murine VII/20; also called HC2LC4 (CA9hu-1)
B8: CA9hu-1_HC2LC1 (antibody, V domains shown)
VH: EVRLVESGGGLVQPGGSLRLSCAASGFTFTDYYMHWVRQAPGKGLEWLGFIRNKASGYTPQYSASVKGRFTISRDDSTNSLYLQMNSLKTEDTAIYYCVRGGHAGSNYWYFDVWGQGTLVTVSS
VL: DIQMTQSPSSLSASVGDRVTITCHVSQNINVWLSWYQQKPGKAPNLLIYQASNLHTGVPSRFSGSGSGTHFTLTISSLQPEDIATYYCQQGQSYPFTFGGGTKVEIK
notes: Humanized from murine VII/20; also called HC2LC1 (CA9hu-1)
B9: CA9hu-1_HC5LC4 (antibody, V domains shown)
VH: EVQLVESGGGLVQPGGSLRLSCAASGFTFTDYYMHWVRQAPGKGLEWVGFIRNKASGYTPQYSASVKGRFTISRDDSKNSLYLQMNSLKTEDTAVYYCVRGGHAGSNYWYFDVWGQGTMVTVSS
VL: DIQMTQSPSSLSASVGDRVTINCHVSQNINVWLSWYQQKPGEAPKLLIYQASNLHTGVPSRFSGSGSGTGFTLTIRSLQPEDYATYYCQQGQSYPFTFGQGTKLEIK
notes: Humanized from murine VII/20; also called HC5LC4 (CA9hu-1)
B10: CA9hu-1_HC5LC2 (antibody, V domains shown)
VH: EVQLVESGGGLVQPGGSLRLSCAASGFTFTDYYMHWVRQAPGKGLEWVGFIRNKASGYTPQYSASVKGRFTISRDDSKNSLYLQMNSLKTEDTAVYYCVRGGHAGSNYWYFDVWGQGTMVTVSS
VL: DIQMTQSPSTLSASVGDRVTITCHVSQNINVWLSWYQQKPGNAPKLLIYQASNLHTGVPSRFSGSGSGTEFTLTIGSLQPDDFVTYYCQQGQSYPFTFGQGTKVEIK
notes: Humanized from murine VII/20; also called HC5LC2 (CA9hu-1)
B11: CA9hu-1_HC4LC5 (antibody, V domains shown)
VH: EVQLVESGGGLVQPGGSLRLSCAASGFTFTDYYMHWVRQAPGRGLEWVAFIRNKASGYTPQYSASVKGRFTISRDNAENSLYLQMNSLRAEDTAVYYCVRGGHAGSNYWYFDVWGKGTTVTVSS
VL: DIQMTQSPSSLSASVGDRVTITCHVSQNINVWLSWYQQKPGKAPKLLIYQASNLHTGVPSRFSGSGSGTDFTFTISSLQPEDIATYYCQQGQSYPFTFGQGTKLEIK
notes: Humanized from murine VII/20; also called HC4LC5 (CA9hu-1)
B12: CA9hu-1_HC3LC5 (antibody, V domains shown)
VH: QVQLVQSGGGLVQPGRSLRLSCTASGFTFTDYYMHWVRQAPGKGLEWVGFIRNKASGYTPQYSASVKGRFTISRDDSKTIAYLQMNSLKTEDTAVYYCVRGGHAGSNYWYFDVWGQGTLVTVSS
VL: DIQMTQSPSSLSASVGDRVTITCHVSQNINVWLSWYQQKPGKAPKLLIYQASNLHTGVPSRFSGSGSGTDFTFTISSLQPEDIATYYCQQGQSYPFTFGQGTKLEIK
notes: Humanized from murine VII/20; also called HC3LC5 (CA9hu-1)
B13: CA9hu-1_HC3LC3 (antibody, V domains shown)
VH: QVQLVQSGGGLVQPGRSLRLSCTASGFTFTDYYMHWVRQAPGKGLEWVGFIRNKASGYTPQYSASVKGRFTISRDDSKTIAYLQMNSLKTEDTAVYYCVRGGHAGSNYWYFDVWGQGTLVTVSS
VL: DIQMTQSPSSLSASVGDRVTITCHVSQNINVWLSWYQQKPGEAPKLLIYQASNLHTGVPSRFSGSGSGTDFTLTISSLQPEDFATYYCQQGQSYPFTFGQGTKLEIK
notes: Humanized from murine VII/20; also called HC3LC3 (CA9hu-1)
B14: CA9hu-1_HC4LC3 (antibody, V domains shown)
VH: EVQLVESGGGLVQPGGSLRLSCAASGFTFTDYYMHWVRQAPGRGLEWVAFIRNKASGYTPQYSASVKGRFTISRDNAENSLYLQMNSLRAEDTAVYYCVRGGHAGSNYWYFDVWGKGTTVTVSS
VL: DIQMTQSPSSLSASVGDRVTITCHVSQNINVWLSWYQQKPGEAPKLLIYQASNLHTGVPSRFSGSGSGTDFTLTISSLQPEDFATYYCQQGQSYPFTFGQGTKLEIK
notes: Humanized from murine VII/20; also called HC4LC3 (CA9hu-1)
B15: CA9hu-1_HC5LC5 (antibody, V domains shown)
VH: EVQLVESGGGLVQPGGSLRLSCAASGFTFTDYYMHWVRQAPGKGLEWVGFIRNKASGYTPQYSASVKGRFTISRDDSKNSLYLQMNSLKTEDTAVYYCVRGGHAGSNYWYFDVWGQGTMVTVSS
VL: DIQMTQSPSSLSASVGDRVTITCHVSQNINVWLSWYQQKPGKAPKLLIYQASNLHTGVPSRFSGSGSGTDFTFTISSLQPEDIATYYCQQGQSYPFTFGQGTKLEIK
notes: Humanized from murine VII/20; also called HC5LC5 (CA9hu-1)
B16: CA9hu-1_HC2LC2 (antibody, V domains shown)
VH: EVRLVESGGGLVQPGGSLRLSCAASGFTFTDYYMHWVRQAPGKGLEWLGFIRNKASGYTPQYSASVKGRFTISRDDSTNSLYLQMNSLKTEDTAIYYCVRGGHAGSNYWYFDVWGQGTLVTVSS
VL: DIQMTQSPSTLSASVGDRVTITCHVSQNINVWLSWYQQKPGNAPKLLIYQASNLHTGVPSRFSGSGSGTEFTLTIGSLQPDDFVTYYCQQGQSYPFTFGQGTKVEIK
notes: Humanized from murine VII/20; also called HC2LC2 (CA9hu-1)
B17: CA9hu-1_HC2LC5 (antibody, V domains shown)
VH: EVRLVESGGGLVQPGGSLRLSCAASGFTFTDYYMHWVRQAPGKGLEWLGFIRNKASGYTPQYSASVKGRFTISRDDSTNSLYLQMNSLKTEDTAIYYCVRGGHAGSNYWYFDVWGQGTLVTVSS
VL: DIQMTQSPSSLSASVGDRVTITCHVSQNINVWLSWYQQKPGKAPKLLIYQASNLHTGVPSRFSGSGSGTDFTFTISSLQPEDIATYYCQQGQSYPFTFGQGTKLEIK
notes: Humanized from murine VII/20; also called HC2LC5 (CA9hu-1)
B18: CA9hu-1_HC3LC4 (antibody, V domains shown)
VH: QVQLVQSGGGLVQPGRSLRLSCTASGFTFTDYYMHWVRQAPGKGLEWVGFIRNKASGYTPQYSASVKGRFTISRDDSKTIAYLQMNSLKTEDTAVYYCVRGGHAGSNYWYFDVWGQGTLVTVSS
VL: DIQMTQSPSSLSASVGDRVTINCHVSQNINVWLSWYQQKPGEAPKLLIYQASNLHTGVPSRFSGSGSGTGFTLTIRSLQPEDYATYYCQQGQSYPFTFGQGTKLEIK
notes: Humanized from murine VII/20; also called HC3LC4 (CA9hu-1)
B19: CA9hu-1_HC2LC3 (antibody, V domains shown)
VH: EVRLVESGGGLVQPGGSLRLSCAASGFTFTDYYMHWVRQAPGKGLEWLGFIRNKASGYTPQYSASVKGRFTISRDDSTNSLYLQMNSLKTEDTAIYYCVRGGHAGSNYWYFDVWGQGTLVTVSS
VL: DIQMTQSPSSLSASVGDRVTITCHVSQNINVWLSWYQQKPGEAPKLLIYQASNLHTGVPSRFSGSGSGTDFTLTISSLQPEDFATYYCQQGQSYPFTFGQGTKLEIK
notes: Humanized from murine VII/20; also called HC2LC3 (CA9hu-1)

The target of the test is recombinant human CA IX (human, UniProt Q16790 38-414). Put plainly: SPR (Biacore 2000), antibody captured on CM5 chip, rh CA IX in flow, 25 C. The protocol: In order to determinate the antigen-binding affinity of humanized variants, measurements of affinity constant (KD) for antibodies binding to CA IX were performed by SPR using a Biacore 2000 (T200 in case of CA9hu-2) instrument (GE Healthcare, Piscataway, NJ USA). Each humanized antibody variant was captured on the CM5 sensor chip and recombinant human CA IX (rh CA IX; 42 kDa; R&D Systems, Inc., Minneapolis MN, USA) protein as an antigen was added to the buffer flowing over the chip. The setting details of quantitative interaction analysis between humanized antibodies and rh CA IX were as follows: flow rate 30 μl/min; analysis temperature 25° C.; analysis buffer (10mM HEPES pH 7.4, 150 mM NaCl, […], 0.05% Tween 20). Results from SPR analysis are expressed as the equilibrium dissociation constant (KD) (Table 7).
(In SPR one partner is held on a chip, and binding of the other changes the refractive index at the surface.)
Consider B1, for which the Kd was 22 nM.
The result for B2 reads 96 nM; that for B3, 9.1 nM; that for B4, 81 nM.
In the case of B5, the Kd was found to be 15.2 nM.
For B6, the Kd worked out at 91 nM.
For B7, the Kd is 60 nM.
The result for B8 reads 60 nM; that for B9, 54 nM; that for B10, 52 nM.
The result for B11 reads 12.3 nM; that for B12, 83 nM.
The result for B13 reads 82 nM.
For the molecule B14, the Kd was 10.7 nM.
The result for B15 reads 64 nM.
The result for B16 reads 53 nM; that for B17, 56 nM; that for B18, 97 nM.
The result for B19 reads 51 nM.
